Assay results published in patent publication US20260242730A1 (POINTLOMA BIOSCIENCES, published 2026).

T1: recombinant human TROP2 protein (human, UniProt P09758 27-274)
T1 sequence (looked up): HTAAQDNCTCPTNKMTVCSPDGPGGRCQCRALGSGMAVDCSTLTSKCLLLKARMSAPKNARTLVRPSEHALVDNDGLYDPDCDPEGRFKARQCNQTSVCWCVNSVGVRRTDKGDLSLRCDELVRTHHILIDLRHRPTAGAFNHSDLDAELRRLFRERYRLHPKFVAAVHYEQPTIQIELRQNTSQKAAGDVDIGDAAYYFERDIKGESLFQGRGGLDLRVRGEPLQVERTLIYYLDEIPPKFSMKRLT

T2: recombinant human TROP2 protein (human, UniProt P09758 27-274)
T2 chain: T1 sequence (looked up)

B1: anti-PD-L1 #PD3 VHH (VHH)
VHH: DVQLQESGGGLVQAGDSLGLSCAASGRAFSLFEMAWYRQAPGKAREFVAAIMWRGGHTVYADSVKGRSTISSDNTKNTVYLQMNSLKPEDTAIYYCRGKVVGSDYWGQGTQVTVSS
B2: TROP2 CAR with anti-TROP2 #PL02 scFv (VL-linker-VH) adopted from monoclonal antibody hRS7, on γδ T cells (other, not shown: small tags and cut ends)
chain: DIQLTQSPSSLSASVGDRVSITCKASQDVSIAVAWYQQKPGKAPKLLIYSASYRYTGVPDRFSGSGSGTDFTLTISSLQPEDFAVYYCQQHYITPLTFGAGTKVEIKGGGGSGGGGSGGGGSQVQLQQSGSELKKPGASVKVSCKASGYTFTNYGMNWVKQAPGQGLKWMGWINTYTGEPTYTDDFKGRFAFSLDTSVSTAYLQISSLKADDTAVYFCARGGFGSSYWYFDVWGQGSLVTVSS
notes: CAR on γδ T cells
B3: TROP2 CAR with anti-TROP2 VHH #TP9, on γδ T cells (other)
chain: QVQLVESGGGLVQPGGSLRLSCAASGFSLDYWAIAWFRQAPGKEREGVSCSGSRGSTHYADSVKGRFTISRDNAKNTVYLQMNSLKPEDAGVYYCAVGSTLYSLTPYEYDYWGQGTQVTVSSTTTPAPRPPTPAPTIASQPLSLRPEACRPAAGGAVHTRGLDFACDIYIWAPLAGTCGVLLLSLVITLYCKRGRKKLLYIFKQPFMRPVQTTQEEDGCSCRFPEEEEGGCELRVKFSRSADAPAYQQGQNQLYNELNLGRREEYDVLDKRRGRDPEMGGKPRRKNPQEGLYNELQKDKMAEAYSEIGMKGERRRGKGHDGLYQGLSTATKDTYDALHMQALPPR
B4: anti-PD-L1 #PD1 VHH (VHH)
VHH: DVQLQESGGGLVQAGGSLRLSCAASESIASINVMGWYRQAPGKQRELVAIITNRGTTSYPDSVKGRFTISRDNGKNTVYLQMNTLKPEDTAVYYCNAPWTDGINYWGKGTQVTVSS
B5: anti-PD-L1 #PD2 VHH (VHH)
VHH: DVQLQESGGGLVEPGGSLRLSCAASGFTFNHYGMSWVRQAPGKGLQWVSTLFTTGSSQYANSVKGRFTISRDAAENTLYLHMNNLKPEDTAVYFCAKGVGLGSERGPGTQVTVSS
B6: TROP2 CAR with anti-TROP2 VHH #TP12, on γδ T cells (other)
chain: QVQLVESGGGLVQPGGSLRLSCAASRFTLDYYAIGWIRQAPGKEREGVSCISSSGGSTNYADSVKGRFTISRDNAKNTVYLQMNSLKPEDTGVYYCAATTYACSGYVPRAYEYDYWGQGTQVTVSSTTTPAPRPPTPAPTIASQPLSLRPEACRPAAGGAVHTRGLDFACDIYIWAPLAGTCGVLLLSLVITLYCKRGRKKLLYIFKQPFMRPVQTTQEEDGCSCRFPEEEEGGCELRVKFSRSADAPAYQQGQNQLYNELNLGRREEYDVLDKRRGRDPEMGGKPRRKNPQEGLYNELQKDKMAEAYSEIGMKGERRRGKGHDGLYQGLSTATKDTYDALHMQALPPR

What was measured:
[1] = molecular target: T3, human PD-L1 (antigen of panning and phage ELISA) (human, UniProt Q9NZQ7 19-238, biotinylated (panning antigen)); assay: phage ELISA of clones panned on biotinylated human PD-L1
T3 construct: also called biotinylated human PD-L1
Text: The animal boosted four times every two weeks. After confirming the serum titer against PD-L1, PBMC was isolated and used for phage display library construction. Anti-PD-L1 binders were isolated with the immunized phage display library using liquid phase Biopanning on biotinylated human PD-L1. Stringency was increased during successive rounds by decreasing antigen concentration, increasing the number and duration of washes, and/or changing the duration of selections. The panning process was repeated three to four times until the output phage enrichment was identified. The eluted phages were diluted and spread on a petri dish to grow single colonies. Individual phage clones were selected and amplified. 384 single colonies were selected and tested for specificity by ELISA. […] After sequencing the positive clones, three unique sequences were obtained based on amino acid sequences.

[2] = molecular target: T1, recombinant human TROP2 protein; assay: flow cytometry, titration of TROP2 protein on CAR γδ T cells
[3] = molecular target: T2, recombinant human TROP2 protein; assay: binding of TROP2 protein to binder-expressing γδ T cells

T3 sequence (Q9NZQ7 19-238 limits assumed): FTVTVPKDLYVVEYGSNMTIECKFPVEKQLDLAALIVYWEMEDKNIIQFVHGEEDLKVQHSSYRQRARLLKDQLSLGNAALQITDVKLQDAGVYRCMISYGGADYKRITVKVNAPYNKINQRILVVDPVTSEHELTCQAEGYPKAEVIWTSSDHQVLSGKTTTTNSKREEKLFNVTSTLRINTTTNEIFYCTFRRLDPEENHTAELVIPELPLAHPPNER

| Binder | binding result [1] | binding result [2] | EC50 [3] [nM] |
| --- | --- | --- | --- |
| B1 | binds |  |  |
| B2 |  | binds | 6.81 |
| B3 |  |  | 18.1 |
| B4 | binds |  |  |
| B5 | binds |  |  |
| B6 |  |  | 14.4 |
